± gives the uncertainty stated by the source.

The record followed here is the supplement of paper PMC9732359.

The nature of this series: protein stability index of a GFP-peptide fusion (yeast GPS) (PSI 1-4); higher = more stable; sorted into four equal gates, so the index is relative within each strain. In a few lines: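 Tiled yeast protein peptides of 17 residues were each joined downstream of GFP, on plasmids that also express Cherry. The pooled library was maintained in yeast, and mid-log cultures in leucine-free medium were sorted into four equal gates on the GFP/Cherry ratio. Plasmids from every gate were amplified by PCR and sequenced on Illumina, with barcodes linking reads to strains. The protein stability index of a peptide is its gate-number-weighted read frequency summed over the gates.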

GRPETYIWRYLPAPPVC [RPO31] displayed a protein stability index (doa10∆) of 1.5 ± 0.18, a protein stability index (pdr5∆) of 1.57 ± 0.12, a protein stability index (san1∆) of 1.17 ± 0.16 and a protein stability index (ubr1∆) of 2.02 ± 0.1.
QLENADTGTLDTKSVVG [RPN2] registered a protein stability index (doa10∆) of 3.09 ± 0.087, a protein stability index (pdr5∆) of 3.01 ± 0.082, a protein stability index (san1∆) of 3.08 ± 0.071 and a protein stability index (ubr1∆) of 3.04 ± 0.075.
On the same counts, the results for ANVIKALAFCEIGITQQ [RRP4] are 1.36 ± 0.07, 2 ± 0.079, 1.76 ± 0.16 and 2.26 ± 0.075.
Taken in the same sequence, the figures for IEITNSNDLCSQIFDQL [SRB8] were 2.67 ± 0.057, 2.96 ± 0.074, 2.69 ± 0.059 and 2.74 ± 0.043.
On the same counts, the results for LSQPVSASKHEYSDNFP [SIR4] are 2.24 ± 0.084, 2.34 ± 0.046, 2.82 ± 0.071 and 2.89 ± 0.046.
Take LLWLVLIHPENFTCNRK [SWI1]: the protein stability index was 1.9 ± 0.056 (doa10∆), 1.92 ± 0.063 (pdr5∆), 2.38 ± 0.064 (san1∆) and 2.96 ± 0.074 (ubr1∆).
Taken in the same sequence, the figures for LRKLKKMNNKPERFMVF [RPC53] were 3.19 ± 0.099, 3.35 ± 0.14, 3.03 ± 0.099 and 3.18 ± 0.14.
In the case of SAGLDSAQQNLASSFVN [RPN1], the protein stability index worked out at 2.96 ± 0.16 (pdr5∆), 2.79 ± 0.17 (san1∆) and 3.2 ± 0.2 (ubr1∆).
For IIQLILWSIHPSRQFDH [SRB8], the protein stability index came to 1.57 ± 0.047 (doa10∆), 1.47 ± 0.049 (pdr5∆), 1.59 ± 0.087 (san1∆) and 1.54 ± 0.05 (ubr1∆).
On the same counts, the results for QPQQSTIGGGLFGNKPT [YGR119C/NUP57] are 2.75 ± 0.087, 2.73 ± 0.15, 3.55 ± 0.15 and 1.38 ± 0.19.
For NHDRINISNNLQKALTV [RPN8], the protein stability index is, setting by setting: (doa10∆) 3.17 ± 0.064; (pdr5∆) 3.29 ± 0.062; (san1∆) 3.38 ± 0.038; (ubr1∆) 3.27 ± 0.046.
On the same counts, the results for EIPTQIYRTTRQDGSYT [ARP9] are 2.94 ± 0.081, 3.17 ± 0.086, 2.93 ± 0.083 and 3.06 ± 0.059.
SKSNLIHNYDSKKSTIT [RGR1]: the protein stability index runs as follows: (doa10∆) 3.03 ± 0.067; (pdr5∆) 3.03 ± 0.054; (san1∆) 3.05 ± 0.04; (ubr1∆) 3.11 ± 0.038.
As to ADESKMAKLNECPLDPG [RET1], the protein stability index reads like this: (doa10∆) 2.64 ± 0.083; (pdr5∆) 2.74 ± 0.095; (san1∆) 2.85 ± 0.082; (ubr1∆) 2.08 ± 0.079.
On to TQAAEFLSPYISTHLKT [IRR1], for which the protein stability index reads like this: (doa10∆) 1.96 ± 0.039; (pdr5∆) 2.32 ± 0.059; (san1∆) 2.03 ± 0.073; (ubr1∆) 2.21 ± 0.043.
On the same counts, the results for LVKIDDLSANQRETMKE [SMC1] are 3.29 ± 0.083, 3.22 ± 0.091, 3 ± 0.11 and 3.45 ± 0.089.
On the same counts, the results for ILDGQDVEENRSEFIES [YJR042W/NUP85] are 3.13 ± 0.09, 3.2 ± 0.071, 3.48 ± 0.072 and 3.27 ± 0.038.
Taken in the same sequence, the figures for TTALLKDEEIEKLLQQD [MED8] were 3.29 ± 0.13, 3.13 ± 0.13, 3.05 ± 0.23 and 3.59 ± 0.14.
LSQQQKDAQKKDIEKLT [YIL149C/MLP2] yielded a protein stability index (doa10∆) of 2.79 ± 0.079, a protein stability index (pdr5∆) of 2.95 ± 0.069, a protein stability index (san1∆) of 2.78 ± 0.064 and a protein stability index (ubr1∆) of 2.97 ± 0.075.
Sequence DPDLGLDLMFDEVYVQN [YJL039C/NUP192] had a protein stability index (doa10∆) of 3.06 ± 0.13, a protein stability index (pdr5∆) of 3.04 ± 0.11, a protein stability index (san1∆) of 2.93 ± 0.11 and a protein stability index (ubr1∆) of 2.85 ± 0.038.
Taken in the same sequence, the figures for MAKSKNHTAHNQTRKAH [RPL29] were 1.7 ± 0.058, 2.41 ± 0.08, 1.96 ± 0.095 and 2.32 ± 0.067.
Taken in the same sequence, the figures for IRSSSVSLVAEATSNTN [MED4] were 1.89 ± 0.076, 1.63 ± 0.061, 2.12 ± 0.098 and 1.33 ± 0.036.
Taken in the same sequence, the figures for EDAFNFWFDKLVTKILP [YCG1] were 1.94 ± 0.21, 2.5 ± 0.14, 2.88 ± 0.12 and 2.94 ± 0.11.
On to VNRSVVVSAVGEARNDI [YAR002W/NUP60], for which the protein stability index by setting is: (doa10∆) 2.62 ± 0.044; (pdr5∆) 2.57 ± 0.051; (san1∆) 2.83 ± 0.041; (ubr1∆) 2.2 ± 0.037.
Turning to EELRDLYQTYHVLVGDL [FAS1], the protein stability index was determined as 2.26 ± 0.071 (doa10∆), 2.54 ± 0.054 (pdr5∆), 2.22 ± 0.059 (san1∆) and 2.38 ± 0.049 (ubr1∆).
